In patent publication US20100150931A1 (CENTRE HOSPITALIER DE L UNIVERSITE DE MONTREAL, published 2010):
Residue numbers refer to the chain shown, from its start. In names and notes the source's numbering stands.

B1: Recombinant trimeric soluble CD40L (ligand, UniProt P29965 51-261, looked up)
chain: DKIEDERNLHEDFVFMKTIQRCNTGERSLSLLNCEEIKSQFEGFVKDIMLNKEETKKENSFEMQKGDQNPQIAAHVISEASSKTTSVLQWAEKGYYTMSNNLVTLENGKQLTVKRQGLYYIYAQVTFCSNREASSQAPFIASLCLKSPGRFERILLRAANTHSSAKPCGQQSIHLGGVFELQPGASVFVNVTDPSQVSHGTGFTSFGLLKL
modifications: Alexa Fluor-488 label in the form called rsCD40L-A; unlabelled in the solid phase assay and in cell stimulation
B2: CD40L Y170A (monomeric soluble human CD40L mutant) (ligand)
chain: MQKGDQNPQIAAHVISEASSKTTSVLQWAEKGYYTMSNNLVTLENGKQLTVKRQGLYAIYAQVTFCSNREASSQAPFIASLCLKSPGRFERILLRAANTHSSAKPCGQQSIHLGGVFELQPGASVFVNVTDPSQVSHGTGFTSFGLLKL
notes: Made in Drosophila S2 cells from the soluble human CD40L construct M113 to L261 with Y170 changed to alanine; Numbering of Y170 is that of full-length human CD40L; also called hsCD40LY170A; hCD40L mutated in its Y170 residue; not shown: C-terminal V5 / hexahistidine tag from the pMT-BiP/V5-His A vector
B3: CD40L G227A (monomeric soluble human CD40L mutant) (ligand)
chain: B2 chain with A58Y, G115A
notes: Made in Drosophila S2 cells from the soluble human CD40L construct M113 to L261 with G227 changed to alanine; also called hCD40L mutated in its G227 residue; not shown: C-terminal V5 / hexahistidine tag from the pMT-BiP/V5-His A vector

Key:
[1] = molecular target: T1, α5β1 integrin on cells (U937 and other CD40-negative cell lines) (human, UniProt P08648 42-1049; P05556 21-798); assay: cell-based or functional assay
[2] = molecular target: T1, α5β1 integrin on cells (U937 and other …); assay: flow cytometry, competition with sCD40L-Alexa on U937 cells
CD40 on BJAB B cells = molecular target: T2, CD40 on BJAB B cells (human, UniProt P25942 21-277); assay: flow cytometry, competition with sCD40L-Alexa on BJAB cells
T2 construct: whole, on cells; also called CD40-positive human BJAB B cell line
T2 sequence (P25942 21-277): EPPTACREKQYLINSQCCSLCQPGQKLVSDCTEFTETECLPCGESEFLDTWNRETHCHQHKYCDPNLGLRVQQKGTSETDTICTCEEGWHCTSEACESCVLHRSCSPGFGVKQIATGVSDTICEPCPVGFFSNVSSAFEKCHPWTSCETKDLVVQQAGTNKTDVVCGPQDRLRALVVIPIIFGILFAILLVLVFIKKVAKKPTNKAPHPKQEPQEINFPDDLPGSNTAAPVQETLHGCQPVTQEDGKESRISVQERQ

T1 sequence (P08648 42-1049, chain 1 of 2): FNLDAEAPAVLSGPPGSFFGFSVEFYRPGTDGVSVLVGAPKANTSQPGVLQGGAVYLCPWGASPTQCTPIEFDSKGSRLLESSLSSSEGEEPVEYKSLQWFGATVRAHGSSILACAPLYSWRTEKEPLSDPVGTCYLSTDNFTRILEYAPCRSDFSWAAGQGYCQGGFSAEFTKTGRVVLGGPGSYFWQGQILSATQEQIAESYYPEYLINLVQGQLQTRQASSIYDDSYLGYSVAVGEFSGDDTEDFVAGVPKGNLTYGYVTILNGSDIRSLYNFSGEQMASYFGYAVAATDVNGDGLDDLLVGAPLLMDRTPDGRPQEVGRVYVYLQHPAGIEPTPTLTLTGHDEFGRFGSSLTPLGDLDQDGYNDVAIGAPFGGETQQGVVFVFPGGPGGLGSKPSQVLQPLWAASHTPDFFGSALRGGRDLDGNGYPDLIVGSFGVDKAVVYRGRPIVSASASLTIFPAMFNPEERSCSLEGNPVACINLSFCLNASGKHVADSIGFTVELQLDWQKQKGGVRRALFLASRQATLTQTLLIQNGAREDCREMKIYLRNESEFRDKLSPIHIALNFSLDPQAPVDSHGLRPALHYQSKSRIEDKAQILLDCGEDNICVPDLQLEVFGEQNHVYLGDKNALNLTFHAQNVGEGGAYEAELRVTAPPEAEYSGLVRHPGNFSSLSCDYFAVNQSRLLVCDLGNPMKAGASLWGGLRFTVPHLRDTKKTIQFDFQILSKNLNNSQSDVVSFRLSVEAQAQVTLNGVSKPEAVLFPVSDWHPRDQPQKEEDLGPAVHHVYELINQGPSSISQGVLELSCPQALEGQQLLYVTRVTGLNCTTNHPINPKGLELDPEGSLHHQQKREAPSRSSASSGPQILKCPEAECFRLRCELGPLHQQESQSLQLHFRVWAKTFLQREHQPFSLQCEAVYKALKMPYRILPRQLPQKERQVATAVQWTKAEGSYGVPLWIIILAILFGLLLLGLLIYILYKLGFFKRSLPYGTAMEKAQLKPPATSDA
T1 sequence (P05556 21-798, chain 2 of 2): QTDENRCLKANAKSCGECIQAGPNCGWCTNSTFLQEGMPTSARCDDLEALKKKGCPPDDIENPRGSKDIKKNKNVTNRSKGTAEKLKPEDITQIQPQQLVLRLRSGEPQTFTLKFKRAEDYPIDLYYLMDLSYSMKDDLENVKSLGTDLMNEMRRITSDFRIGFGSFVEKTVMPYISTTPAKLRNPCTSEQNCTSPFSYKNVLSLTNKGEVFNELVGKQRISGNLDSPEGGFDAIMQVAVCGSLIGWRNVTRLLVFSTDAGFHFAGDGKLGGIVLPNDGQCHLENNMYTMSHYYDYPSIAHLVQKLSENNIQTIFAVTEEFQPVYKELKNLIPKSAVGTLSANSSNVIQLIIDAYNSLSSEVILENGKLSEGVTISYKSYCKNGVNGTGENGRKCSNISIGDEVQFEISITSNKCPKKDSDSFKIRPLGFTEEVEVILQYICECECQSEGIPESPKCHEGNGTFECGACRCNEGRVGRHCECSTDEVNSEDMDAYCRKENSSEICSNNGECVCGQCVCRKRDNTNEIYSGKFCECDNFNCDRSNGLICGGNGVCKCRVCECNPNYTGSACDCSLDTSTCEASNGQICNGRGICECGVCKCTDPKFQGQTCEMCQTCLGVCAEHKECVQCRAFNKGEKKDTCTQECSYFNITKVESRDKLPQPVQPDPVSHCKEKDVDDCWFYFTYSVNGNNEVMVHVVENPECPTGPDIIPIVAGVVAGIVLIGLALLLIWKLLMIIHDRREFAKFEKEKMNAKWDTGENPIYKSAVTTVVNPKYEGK

Row | Binder | IL-8 mRNA expression (RT-PCR, U937 cells) [1] | binding result [2] | binding result (CD40 on BJAB B cells)
1 | B1 | 2.5 fold increase | – | –
2 | B2 | – | binds | binds
3 | B3 | – | binds | binds
